{
  "source": "the nanobody polyreactivity screen of Harvey et al. (2022)",
  "data": [
    {"experiment": "yeast display, Sf9 membrane polyspecificity reagent, FACS + sequencing; frameworks hold sequencing errors", "in_short": "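Using colony PCR, genes from sorted yeast display clones were amplified, then sequenced on MiSeq at 2 × 250 and filtered by CDR length. The clones had been stained with 10% biotinylated, detergent-solubilized Sf9 membrane reagent for 1 hour at 4 °C and sorted by FACS into low and high (top ~1%) gates on anti-HA and streptavidin fluorescence. Polyreactivity labels come from the gate of origin.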", "values": [
      {"sequence": "QVQLVESGGGLVQAGGSLRLSCAASGSTYIVYAMGWYRQAPGKERELVAAIRGRGGSTYYADSVKGRFTISRDNAKNTVYLQMNSLKPEVTAVYYCAARGISPLEMYYWGQGTQVTVSS", "polyreactivity (PSR sort gate)": "high polyreactivity"},
      {"sequence": "QVQLVESGGGLVQAGGSLRLSCAASGSTYRPYAMGWYRQAPVKERELVAAISWSGGRTYYADSVKGRFTISRDNAKNNVYLPMNSLKPEDTAVYYCNRAGRQPKNTYDYWGQGTQVTVSS", "polyreactivity (PSR sort gate)": "high polyreactivity"},
      {"sequence": "QVQLVESGGGLVQAGGSLRLSCAASGSTYSYYTMGWYIQAPGKERELVATISRRGASTYYADSVKGRFTISRDNAKNTVYLQMNSLKPEDTAVYYCAKSYYYGRSATRPEYDYWGQGTQVTVSS", "polyreactivity (PSR sort gate)": "high polyreactivity"},
      {"sequence": "QVQLVESGGGLVQAGGSLRLSCAASGSTYTGYTMGWYRQAPGKERELVAAITYRGGSTYYADSVKGRITISRDNAKNTVYLQMNSLKREDTEVYYCAARSFFIMYYWGQGTQVTVSS", "polyreactivity (PSR sort gate)": "low polyreactivity"},
      {"sequence": "QVQLVESGGGLVQAGGSLRLSCAASGSTYTHNTMGWYRQAPGKERELVAAISKSGGRTYYADSVKGRFTISRDHAKNTVYLQMNSLKPEVTAVYYCAARVTGVGDYYWGQGTQVTGSS", "polyreactivity (PSR sort gate)": "high polyreactivity"},
      {"sequence": "QVQLVESGGGLVQAGGSLRLSCAASGSTYVQYAMGWYRKAPGKERELVPVISYSGGSTYYADSVKGRFTISRDNAKNTVYLQMNSLKPEDTAVYYCAAVYGGGHRKMDYWGQGTQVTVSS", "polyreactivity (PSR sort gate)": "low polyreactivity"},
      {"sequence": "QVQLVESGGGLVQAGGSLRLSCAASGSTYYYAMGWSRQAPGKERELVAAISSSSGSTYYADSVKGRFTISRDNAKNTVYLQMNSLKPEDTAVYYCAAEGYKGWVYEYDYWGQGTQVTVSS", "polyreactivity (PSR sort gate)": "low polyreactivity"},
      {"sequence": "QVQLVESGGGLVQAGGSLRLSCAASGSYLRYYAMGWYRQAPGKERELVAAISRSGTKTYYADSVKGRFTISRDNAKKTVYLQMNSLKPEDTAVYYCAARGYYRDYDSWGQGTQVTGSS", "polyreactivity (PSR sort gate)": "high polyreactivity"},
      {"sequence": "QVQLVESGGGLVQAGGSLRLSCAASGTFERKVMGWYRPAPGKERELVAAISRSGSSTYYADSVKGRFTISRDNAKNTVYLQMNSLKPEDTAVYYCAARGTKQHFNYWGQGTQVTVSS", "polyreactivity (PSR sort gate)": "high polyreactivity"},
      {"sequence": "QVQLVESGGGLVQAGGSLRLSCAASGTFFGYALGWYRQAPGKERELVAAITPGGSTYYADSVKGRFTISRDNAKNTVYLQMNSLKPEDTAVYYCARVYSRWSYRYDYWGQGTQVTVSS", "polyreactivity (PSR sort gate)": "low polyreactivity"},
      {"sequence": "QVQLVESGGGLVQAGGSLRLSCAASGTFGYYTMGWYRQAPGHERELVAAITRSGGSTYDADSVKGRFTISRDNAKNTVYLQMNSLKPEDTAVYYCATELHAWSSWNRYRAYYYWGQGTQVTVSS", "polyreactivity (PSR sort gate)": "high polyreactivity"},
      {"sequence": "QVQLVESGGGLVQAGGSLRLSCAASGTFHWYAMGWYIQAPGKEMELVAAITGSGGNTYYADSVKGRFTISRDNAKNTVYLQMNSLKPEDTAVYYCAARIYTWSVEYTGYGYWGQGTQVTVSS", "polyreactivity (PSR sort gate)": "high polyreactivity"},
      {"sequence": "QVQLVESGGGLVQAGGSLRLSCAASGTFNYYAMGWYRQAPGKERELVAAISNGDSTTYADSVKGRFTISRDNAKNTVYLQMNSLKPEDTAVYYCAAYRYTPRTSRGYYYWGQGTQVTVSS", "polyreactivity (PSR sort gate)": "low polyreactivity"},
      {"sequence": "QVQLVESGGGLVQAGGSLRLSCAASGTFQVNAMGWYIQAPGKERELVAAINSNGGSTYYADSVKGRFTISRDNAKNTVYLQMNSLKPEDTAVYYCAAVYQRRRSYYWGQGTQVTVSS", "polyreactivity (PSR sort gate)": "high polyreactivity"},
      {"sequence": "QVQLVESGGGLVQAGGSLRLSCAASGTFRVYAMGWYRQAPGKERELVAAISRSGTSTYYSDSVKGRFTISRDNAKNTVYLQMNSLKPEDTAVYYCNDVVRGQYDWGQGTQVTVSS", "polyreactivity (PSR sort gate)": "high polyreactivity"},
      {"sequence": "QVQLVESGGGLVQAGGSLRLSCAASGTFSPYAIGWYRQAPGKERELVAVITSNTGRTYADSVKGRFTISRDNAKNTVYLQMNSLKPEDTAVYYCAARSTYRHWYRTGSRFDYWGQGTQVTVSS", "polyreactivity (PSR sort gate)": "low polyreactivity"},
      {"sequence": "QVQLVESGGGLVQAGGSLRLSCAASGTFVTYMGWYRQAPGKERELVAAIRNGGSTNYADSVKGRFTISRDNAKNTVYLQMNSLKPEDTAVYYCAADRAGSIMNYWGQGTQVTVSS", "polyreactivity (PSR sort gate)": "low polyreactivity"},
      {"sequence": "QVQLVESGGGLVQAGGSLRLSCAASGTFVTYMGWYRQSPGKEREMVAAIRNGGSTNYADSVKGRFTISRDNAKNTVYLQMNSLKPEDTAVYYCAARVTYSRGYRGGSRTKYDYWGQGTQVTVSS", "polyreactivity (PSR sort gate)": "low polyreactivity"},
      {"sequence": "QVQLVESGGGLVQAGGSLRLSCAASGTFWWYAMGWYRQAPGKERELVASINRGGSTYYADSVKGRFTISRDNANNTVYLQMNSLKPEDTAVYYCNAGWIGRLTPYRRATYNYWGQGTQVTVSS", "polyreactivity (PSR sort gate)": "high polyreactivity"},
      {"sequence": "QVQLVESGGGLVQAGGSLRLSCAASGTFYRNAMGWYRQAPGKERELVAAISSGSNTDYADSVKGRFTISRDNAKNTVYLQMNSLKPEDTAVYYCNADRGDLYELRGSGYLDGYWGQGTQVTVSS", "polyreactivity (PSR sort gate)": "low polyreactivity"},
      {"sequence": "QVQLVESGGGLVQAGGSLRLSCAASGTFYRYAMGWYRQAPGKERELVAAIDKTGDTTYYADSVKGRFTISRDNAKNTVYLQMNSLKPEDTAVYYCAATGYPRFGYWGQGTQVTVSS", "polyreactivity (PSR sort gate)": "high polyreactivity"},
      {"sequence": "QVQLVESGGGLVQAGGSLRLSCAASGTFYTYAMGWYRQAPGKERELVAAINGGGRTYYADSVKGRFTISRDNAKNTVYLQMNSLKPEDTAVYYCAARPRWSPSKYDYWGQGTQVTVSS", "polyreactivity (PSR sort gate)": "high polyreactivity"},
      {"sequence": "QVQLVESGGGLVQAGGSLRLSCAASGTFYYYAMGWYRQAPGKERELVAAISNGDSTTYADSVKGRFTISRDNAKNTVYFQMNSLKPEDTAVYYCAAYRYTPRTSRGYYYWGQGTQVTVSS", "polyreactivity (PSR sort gate)": "low polyreactivity"},
      {"sequence": "QVQLVESGGGLVQAGGSLRLSCAASGTIFAKYAMGWYRQAPGKERELVAAISRSSVRTRYADSVKGRFTISRDYAKNTVYLQMNSLKPEDTAVYYCNAYYRSYAYSHLDYWGQGTQVTVSS", "polyreactivity (PSR sort gate)": "high polyreactivity"},
      {"sequence": "QVQLVESGGGLVQAGGSLRLSCAASGTIFLYYAMGWYRQAPGKERELVAGINRVGSTNYADSVKGRFTISRDNAKNTVYLQMNSLKPEDTAVFYCNKAATRSRSRGYWGQGTQVNVSS", "polyreactivity (PSR sort gate)": "low polyreactivity"},
      {"sequence": "QVQLVESGGGLVQAGGSLRLSCAASGTIFQENAMGWYRQAPGKERELVAAITGSGDSTYYADSVKGRFTISRDNAKNTVYLQMNSLKPEDTAVYYCAASWHTPTVYDEYYYWGQGTQVTVSS", "polyreactivity (PSR sort gate)": "low polyreactivity"},
      {"sequence": "QVQLVESGGGLVQAGGSLRLSCAASGTIFRWYAMGWYRQARGKEREFVAAITSSGGSTYYADSVKGRFTISRDNAKNTVYLQMNSLKPEDTAVYYCAARGWTANYEMDHWGQGTQVTVSS", "polyreactivity (PSR sort gate)": "high polyreactivity"},
      {"sequence": "QVQLVESGGGLVQAGGSLRLSCAASGTIFVAYDMGWYRQAPGKERELVAAINFDGTSTYYADSVKGRFTISRDNAKNTVYLQMNSLKPEDTAVYYCNKRVSPTYKGQYDYWGQGTQVTVSS", "polyreactivity (PSR sort gate)": "low polyreactivity"},
      {"sequence": "QVQLVESGGGLVQAGGSLRLSCAASGTLSSYAMGWYRQAPGKERELVAAISLSGGSTYADSVKGRFTISRDNAKKSVYLQMNSLKPEDTAVYYCAKDWDVEITWSFSIYNYWGQGTHVTVSS", "polyreactivity (PSR sort gate)": "low polyreactivity"},
      {"sequence": "QVQLVESGGGLVQAGGSLRLSCAASGTNVKGWYRQAPGKERELVAAISGSGGSTYYADSVKGRFTISRDNAKNTVYLQMNSLKPEDTAVYYCAADSIQYTARPYDYWGQVTQVTVSS", "polyreactivity (PSR sort gate)": "low polyreactivity"},
      {"sequence": "QVQLVESGGGLVQAGGSLRLSCAASGTSGYYAMGWNRQAPGKERELVAGISIGGSTNYADSVKGRFTISRDNAKNTVYLQMNSLKTEDTAVYYCAVDGYVAFSPDRNNYWGQVTQVTVSS", "polyreactivity (PSR sort gate)": "low polyreactivity"},
      {"sequence": "QVQLVESGGGLVQAGGSLRLSCAASGTTFPLYAMGWYRQAPGKERELVAAITSVGSTYYADSVKGRFTISRDNAKNTVYLQMNSLKPEDTAVYDCAAANYTYASRWYDYWGQGTQVTVSS", "polyreactivity (PSR sort gate)": "low polyreactivity"}
    ]}
  ]
}
